Measurements as given in publication doi:10.1101/2021.08.12.455998.

Experiments:
[1] = biological target: empty disulfide-stabilized HLA-A*02:01 molecule (HLA-A*02:01(Y84C/A139C) heavy chain with beta-2 microglobulin) (human); assay: nDSF thermal shift
[2] = biological target: empty disulfide-stabilized HLA-A*02:01 molecule (HLA-A*02:01(Y84C/A139C) heavy chain with beta-2 microglobulin) (human); assay: native MS

B1: LV8 (peptide)
peptide: LVPMVATV
- ΔTm [1]: 11.6 K
- Kd [2]: 0.07 µM

B2: NT8 (peptide)
peptide: NLVPMVAT
- Kd [2]: 30 µM

B3: MV5 (peptide)
peptide: MVATV
- stoichiometry N [2]: 2

B4: GV9 (peptide)
peptide: GLGGGGGGV
- ΔTm [1]: 6.4 K
- percent of dsA2 as dsA2/pep (AUC) at 10 V [2]: 43%
